Series [1] has as its system cyno CLDN6 VLP. Briefly: Biacore T200 SPR affinity to cyno CLDN6 VLP. The class given is binding, cynomolgus. The settings on record: cyno CLDN6, 25 degree C, pH 7.4. The procedure: The binding affinity of the anti-CLDN6/Dual-Fab tri-specific antibody against human and cynomolgus (cyno) CLDN6 VLP (virus-like particle) at pH 7.4 was determined at 25 degree C. using Biacore T200 instrument (GE Healthcare). Anti-human CD81 (BD Pharmingen) antibody was immobilized onto all flow cells of a C1 sensor chip using amine coupling kit (GE Healthcare). Human and cyno CLDN6 VLP were captured onto the sensor surface by the anti-human CD81 antibody. Each VLP was 5-fold dilution by buffer (20 mM NaPhosphate, 150 mM NaCl, 0.1 mg/mL BSA, 0.005% NaN3, pH 7.4). Tested antibody was prepared in buffer (20 mM NaPhosphate, 150 mM NaCl, 0.1 mg/mL BSA, 0.005% NaN3, pH 7.4). Anti-CLDN6/Dual-Fab tri-specific antibody was injected at 50 and 200 nM, followed by dissociation. Sensor surface was regenerated each cycle with 0.1% SDS and 100 mM H3PO4. […] Binding affinities were determined by processing and fitting the data to 1:1 binding model using Biacore T200 Evaluation software, version 2.0 (GE Healthcare).
In general terms: Surface plasmon resonance follows binding to a sensor surface in real time, without labels.

Series [2] addresses T1, recombinant cyno CD3eg (Macaca fascicularis, UniProt Q95LI5).
T1 sequence (Q95LI5 22-117 limits assumed): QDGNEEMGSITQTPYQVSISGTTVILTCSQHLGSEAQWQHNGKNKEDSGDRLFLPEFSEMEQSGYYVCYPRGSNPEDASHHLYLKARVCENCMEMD
T1 sequence (Q95LI7 23-115 partner limits assumed): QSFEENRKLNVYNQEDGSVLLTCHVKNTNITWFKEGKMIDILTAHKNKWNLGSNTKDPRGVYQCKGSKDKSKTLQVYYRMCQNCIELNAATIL
Kind of series: Biacore 8K SPR affinity to cyno CD3eg. The settings on record: 25 degree C, pH 7.4. The class given is binding, cynomolgus. The procedure: (§1) The binding affinity of the anti-CLDN6/Dual-Fab tri-specific antibody against recombinant human and cyno CD3eg (gamma and epsilon subunits of CD3) at pH 7.4 was determined at 25 degree C. using Biacore 8K instrument (GE Healthcare). The binding affinity of the anti-CLDN6/Dual-Fab tri-specific antibody against recombinant human and cyno CD137 at pH 7.4 was determined at 37 degree C. using Biacore 8K instrument (GE Healthcare). Anti-human Fc (GE Healthcare) antibody was immobilized onto all flow cells of a CM4 sensor chip using amine coupling kit (GE Healthcare). Tested antibody and analytes were prepared in ACES pH 7.4 containing 20 mM ACES, 150 mM NaCl, 0.05% Tween 20, 0.005% NaN3. Anti-CLDN6/Dual-Fab tri-specific antibody was captured onto the sensor surface by anti-human Fc. Antibody capture levels were aimed at 300 resonance unit (RU). Recombinant CD3eg and CD137 were injected at both 500 and 2000 nM, followed by dissociation. Sensor surface was regenerated each cycle with 3M MgCl2. […] Binding affinities were determined by processing and fitting the data to 1:1 binding model using Biacore Insight Evaluation software (GE Healthcare).

The target of series [3] is T2, recombinant human CD137 (Homo sapiens, UniProt Q07011).
T2 construct: made in house; host or cells: FreeStyle293F
Briefly: Biacore 8K SPR affinity to human CD137. The class given is binding. The settings on record: human CD137, 37 degree C, pH 7.4. The procedure: as §1

The nature of series [4]: Single dose toxicology study. The class given is in vivo, cynomolgus monkey. The procedure: Potential toxicity of PPU4135 antibody (anti-CLDN6/Dual-Fab tri-specific antibody) was evaluated in toxicity study using cynomolgus monkeys compared with CS3348 antibody (anti-CLDN6/CD3 bispecific antibody). Because both PPU4135 and CS3348 antibodies cross-reacted with their antigens of cynomolgus monkey, cynomolgus monkey was selected as the animal species for evaluations in the in vivo toxicology studies. Since toxicological findings seemed to be more sensitive in male than female animals in the toxicity study with CS3348 (FIG. 14), 2 males were used for evaluation of the PPU4135-mediated toxicity. In these studies, dose levels were set at 100 (for CS3348) or 90 (for PPU4135) micro g/kg, which were approximately 2.57-fold efficacious concentration producing 80% of the maximal response.

For series [5], the system named is SNG-M. Kind of series: SNG-M xenograft in huNOG mice, combination with carboplatin. The class given is in vivo. The settings on record: 30 days after transplantation; CS4135 0.5 mg/kg iv day 13, carboplatin 40 mg/kg ip days 13, 16, 20. The procedure: In this test, NOG (huNOG) mice (described in the aforementioned Example 13) transplanted with human uterus cancer cell line SNG-M and human CD34-positive cells were used. The SNG-M cell line was transplanted subcutaneously to the right flank of the mice, and the mice were divided into groups 13 days after transplantation. Individuals whose tumor volume reached 130 to 244 mm^3 were divided into groups. Vehicle 1 and CS4135 were administered into the mouse tail vein 13 days after transplantation. PBS containing 0.05% Tween-20 was used as Vehicle 1. Vehicle 2 and carboplatin (Bristol Myers Squibb Company) were administered intraperitoneally to the mice 13, 16, and 20 days after transplantation. Physiological saline was used as Vehicle 2.
Tumor volume was measured 13, 16, 20, 23, 26, and 30 days after transplantation, and the average tumor volume was indicated for each group.
The tumor volume was calculated by the following equation: […]
(§2) Tumor Growth Inhibition (TGI) was calculated by the following equation: […]

Series [6] relates to NIH:OVCAR-3. Briefly: OVCAR3 xenograft in huNOG mice, combination with irinotecan hydrochloride. The class given is in vivo. As to conditions: 60 days after transplantation; CS4135 0.1 mg/kg, irinotecan hydrochloride 25 mg/kg, iv days 39, 46. The procedure: In this test, NOG(huNOG) mice (described in the aforementioned Example 13) transplanted with ovarian cancer cell line NIH:OVCAR-3 (OVCAR3, ATCC) and human CD34-positive cells were used. The OVCAR3 cell line was transplanted subcutaneously to the right flank of the mice, and the mice were divided into groups 39 days after transplantation. Individuals whose tumor volume reached 160 to 263 mm^3 were divided into groups. Vehicle 1 and CS4135 were administered into the mouse tail vein 39 and 46 days after transplantation. PBS containing 0.05% Tween-20 was used as Vehicle 1. Vehicle 2 and irinotecan hydrochloride (Sawai Pharmaceutical Co., Ltd.) were administered into the mouse tail vein 39 and 46 days after transplantation. Physiological saline was used as Vehicle 2.
Tumor volume was measured 39, 42, 46, 49, 53, 57, and 60 days after transplantation, and the average tumor volume is indicated for each group. The tumor volume was calculated by the following equation: […]
as §2

T2 sequence (Q07011 with tags, fused parts or gaps): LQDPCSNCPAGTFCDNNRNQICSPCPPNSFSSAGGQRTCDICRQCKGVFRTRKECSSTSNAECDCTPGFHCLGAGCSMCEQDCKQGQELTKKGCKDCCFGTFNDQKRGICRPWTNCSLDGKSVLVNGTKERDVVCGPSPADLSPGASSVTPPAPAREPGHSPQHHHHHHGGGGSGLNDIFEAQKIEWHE

B1: PPU4135: anti-CLDN6/Dual-Fab tri-specific antibody, chains SEQ ID NOs 42, 51, 56, 69; CS4135 same antibody (protein)
chain 1: QVQLVESGGGVVQPGGSLRLSCAASGFTFSSYTMSWVRQAPGQGLEWMGTISSGGGRTYYPDSVKGRFTISRDNSKNTLYLQMNSLRDEDTAVYYCARGDYRYDGFAYWGEGTLVTVSSASTKGPSVFPLAPSSKSTSGGTAALGCLVEDYFPEPVTVSWNSGALTSGVHTFPAVLESSGLYSLSSVVTVPSSSLGTQTYICNVNHKPSNTKVDKRVEPKSCDKTHTCPPCPAPEAAGGPSVFLFPPKPKDTLMISRTPEVTCVVVDVSHEDPEVKFNWYVDGVEVHNAKTKPREEQYASTYRVVSVLTVLHQDWLNGKEYKCKVSNKALPAPIEKTISKAKGQPREPQVYTLPPSREEMTKNQVSLTCLVKGFYPSDIAVEWESNGQPENNYKTTPPVLDSDGSFFLYSKLTVDKSRWQQGNVFSCSVMHEALHNHYTQESLSLSP
chain 2: DIQMTQSPSSLSASVGDRVTITCRASYNIDSYLAWYQQKPGKAPELLIYYSTLLVDGVPDRFSGSRSGTDFTLTISSLQPEDFATYYCQHYYSIPYTFGQGTKVEIERTVAAPSVFIFPPSDEQLKSGTAKVVCLLNNFYPREAKVQWKVDNALQSGNSKESVTEQDSKDSTYSLSSTLTLSKADYEKHKVYACEVTHQGLSSPVTKSFNRGEC
chain 3: QVQLVESGGGLVQPGRSLRLSCAASGFKFSNVWFHWVRQAPGKGLEWVAQIKDYYNAYAAYYAPSVKGRFTISRDDSKNSIYLQMNSLKTEDTAVYYCHYVHYASASTLLPAEGVDAWGQGTTVTVSSASTKGPSVFPLAPSSKSTSGGTAALGCLVKDYFPEPVTVSWNSGALTSGVHTFPAVLKSSGLYSLSSVVTVPSSSLGTQTYICNVNHKPSNTKVDKRVEPKSCDKTHTCPPCPAPEAAGGPSVFLFPPKPKDTLMISRTPEVTCVVVDVSHEDPEVKFNWYVDGVEVHNAKTKPREEQYASTYRVVSVLTVLHQDWLNGKEYKCKVSNKALPAPIEKTISKAKGQPREPQVYTLPPSRKEMTKNQVSLTCLVKGFYPSDIAVEWESNGQPENNYKTTPPVLDSDGSFFLYSKLTVDKSRWQQGNVFSCSVMHEALHNHYTQKSLSLSP
chain 4: DIVMTQSPLSLPVTPGEPASISCQPSQEVVHMNRNTYLHWYQQKPGQAPRLLIYKVSNRFPGVPDRFSGSGSGTDFTLKISRVEAEDVGVYYCAQGTSHPFTFGQGTKLEIKRTVAAPSVFIFPPSDEQLKSGTAEVVCLLNNFYPREAKVQWKVDNALQSGNSEESVTEQDSKDSTYSLSSTLTLSKADYEKHKVYACEVTHQGLSSPVTKSFNRGEC
In the case of B1, the ka in series [1] was 218000 M⁻¹ s⁻¹; in series [2] it was 101000 M⁻¹ s⁻¹; in series [3] it was 12600 M⁻¹ s⁻¹. Moreover, the kd came to 0.000821 s⁻¹ in series [1], 0.0332 s⁻¹ in series [2] and 0.000591 s⁻¹ in series [3]. In series [4] (PPU4135 90 micro g/kg compared with CS3348 100 micro g/kg), the “hepatobiliary damage parameters and inflammatory marker elevations” value was “dramatically mitigated”. Further, the “AST, ALT, GLDH, ALP, TBIL, GGT, TBA and CRP” value in series [4] (male animals, after single IV administration) is on record as “Increased”. In addition, the plasma exposure levels result in series [4] (male animals, until Day 8, PPU4135 90 vs CS3348 100 micro g/kg single IV) was “comparable”. Moreover, the figures for the “Tumor growth inhibition: TGI” value in series [5] and in series [6] were 35% and −2%, respectively.

Source of the values: patent US20240425589A1, “CYTOTOXICITY-INDUCING THERAPEUTIC AGENT FOR USE IN TREATMENT OF CANCER” (CHUGAI SEIYAKU KABUSHIKI KAISHA, priority 2021, published 2024).
